The experiment addresses human GPC3 on GPC3-positive cells (HepG2, Huh-7, SK-Hep-1 GPC3) (human) (UniProt P51654). As to the kind of experiment: cell-based or functional assay.

Turning to “chimeric antigen receptor GC33-28BBZ (GC33 scFv-CD28a-CD28b-CD137-CD3 zeta) on T cells”, the killing rate of CAR T cells on Huh-7 cells, effector target ratio 1:3 came to 23%.

For “chimeric antigen receptor GC33-28Z (GC33 scFv-CD28a-CD28b-CD3 zeta) on T cells”, the killing rate of CAR T cells on Huh-7 cells, effector target ratio 1:1 came out at 22% and the killing rate of CAR T cells on Huh-7 cells, effector target ratio 1:3 is 6%.

The record behind these values is US20190046659A1.
